Data on 16 sequences can be found in the supplement of paper PMC10724198.

± gives the standard deviation of the averaged measurements.

Data set [1] concerns Saccharomyces cerevisiae. Briefly: protein stability index of tFT-peptide fusion (C-terminal peptide) (PSI (0-1 scale)); higher = more stable (slower turnover). As to conditions: genetic background: wild type; temperature: 30 C.
The test system of data set [2] is Saccharomyces cerevisiae. The description is as above. On the procedure: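 MPS profiling in S. cerevisiae of the tFT-X12 degron library: putative degron peptides plus stable controls, 12 aa, fused to the C-terminus of a sfGFP-mCherry timer. Cells are FACS-sorted into 8 mCherry/sfGFP bins and deep-sequenced. PSI runs from 0 (unstable) to 1 (stable). Backgrounds are wild type, das1Δ and doa10Δ at 30 °C, and wild type, das1Δ, cdc34-1 and cdc53-1 at 37 °C; 2-3 technical replicates each.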

Setting [3] is: genetic background: cdc34-1, temperature: 37 C.
Setting [4] is: genetic background: cdc53-1, temperature: 37 C.
Setting [5] is: genetic background: das1 deletion, temperature: 30 C.
The mark [6] stands for this setting: genetic background: das1 deletion, temperature: 37 C.
[7] abbreviates: genetic background: doa10 deletion, temperature: 30 C.
Setting [8] is: genetic background: wild type, temperature: 30 C.
Setting [9] is: genetic background: wild type, temperature: 37 C.
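Further: PSI is a weighted mean of sequencing reads over stability bins, variants kept only with over 10 reads, mCherry proximal and sfGFP distal, peptide attached via GGGS linker.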

Consider ASSFYVDLVLVS, for which the protein stability index turned out to be 0.447 ± 0.0094 in the data set on Saccharomyces cerevisiae [1]; 0.457 ± 0.014 in the data set with Saccharomyces cerevisiae [2] (setting [3]); 0.464 ± 0.024 in the data set on Saccharomyces cerevisiae [2] (setting [4]); 0.341 ± 0.034 in the data set on Saccharomyces cerevisiae [2] (setting [5]); 0.516 ± 0.013 with Saccharomyces cerevisiae [2] (setting [6]); 0.286 ± 0.0084 with Saccharomyces cerevisiae [2] (setting [7]). For the same sequence, the protein stability index with Saccharomyces cerevisiae [2] (setting [8]) worked out at 0.327 ± 0.046; with Saccharomyces cerevisiae [2] (setting [9]), 0.484 ± 0.0065.

On to AVTMSYQCGIFI, for which the protein stability index with Saccharomyces cerevisiae [2] (setting [3]) was 0.646 ± 0.029; with Saccharomyces cerevisiae [2] (setting [4]), 0.672 ± 0.031; in the data set on Saccharomyces cerevisiae [2] (setting [5]), 0.564 ± 0.0081; in the data set on Saccharomyces cerevisiae [2] (setting [6]) it was 0.71 ± 0.028; with Saccharomyces cerevisiae [2] (setting [7]) it was 0.5372 ± 0.0042; with Saccharomyces cerevisiae [2] (setting [8]) it was 0.566 ± 0.019. The same sequence displayed a protein stability index in the data set with Saccharomyces cerevisiae [2] (setting [9]) of 0.68 ± 0.022.

On to AYACSILRCKSS, for which the protein stability index in the data set on Saccharomyces cerevisiae [1] amounted to 0.34 ± 0.086; with Saccharomyces cerevisiae [2] (setting [3]), 0.624 ± 0.015; with Saccharomyces cerevisiae [2] (setting [4]), 0.727 ± 0.013; with Saccharomyces cerevisiae [2] (setting [5]) it was 0.636 ± 0.012; with Saccharomyces cerevisiae [2] (setting [6]), 0.713 ± 0.026; in the data set on Saccharomyces cerevisiae [2] (setting [7]), 0.186 ± 0.016. Also, the protein stability index in the data set with Saccharomyces cerevisiae [2] (setting [8]) turned out to be 0.219 ± 0.052; in the data set on Saccharomyces cerevisiae [2] (setting [9]), 0.422 ± 0.04.

On to CAGRQGRERGHT, for which the protein stability index came to 0.695 ± 0.011 in the data set on Saccharomyces cerevisiae [1]; 0.694 ± 0.03 with Saccharomyces cerevisiae [2] (setting [3]); 0.7217 ± 0.0042 in the data set on Saccharomyces cerevisiae [2] (setting [4]); 0.658 ± 0.043 in the data set on Saccharomyces cerevisiae [2] (setting [5]); 0.722 ± 0.016 in the data set on Saccharomyces cerevisiae [2] (setting [6]); 0.63499 ± 0.00057 with Saccharomyces cerevisiae [2] (setting [7]). Moreover, the figures for the protein stability index in the data set with Saccharomyces cerevisiae [2] (setting [8]) and in the data set with Saccharomyces cerevisiae [2] (setting [9]) were 0.658 ± 0.013 and 0.717 ± 0.036, respectively.

On to CALFLLSSPSPT, for which the protein stability index in the data set with Saccharomyces cerevisiae [1] was determined as 0.699 ± 0.011; in the data set on Saccharomyces cerevisiae [2] (setting [3]), 0.713 ± 0.061; in the data set with Saccharomyces cerevisiae [2] (setting [4]), 0.781 ± 0.01; in the data set with Saccharomyces cerevisiae [2] (setting [5]), 0.634 ± 0.018; in the data set on Saccharomyces cerevisiae [2] (setting [6]) it was 0.768 ± 0.012; in the data set with Saccharomyces cerevisiae [2] (setting [7]), 0.659 ± 0.021. For the same sequence, the protein stability index in the data set with Saccharomyces cerevisiae [2] (setting [8]) came out at 0.6451 ± 0.0031; in the data set with Saccharomyces cerevisiae [2] (setting [9]) it was 0.7356 ± 0.0054.

Regarding CASIVDGFAFRF, the protein stability index in the data set on Saccharomyces cerevisiae [1] turned out to be 0.7662 ± 0.0074; with Saccharomyces cerevisiae [2] (setting [3]), 0.752 ± 0.0086; with Saccharomyces cerevisiae [2] (setting [4]), 0.782 ± 0.03; in the data set on Saccharomyces cerevisiae [2] (setting [5]), 0.632 ± 0.011; with Saccharomyces cerevisiae [2] (setting [6]), 0.786 ± 0.0097; with Saccharomyces cerevisiae [2] (setting [7]) it was 0.646 ± 0.023. For the same sequence, the protein stability index is 0.679 ± 0.046 in the data set on Saccharomyces cerevisiae [2] (setting [8]) and 0.7472 ± 0.0015 in the data set with Saccharomyces cerevisiae [2] (setting [9]).

Regarding CFCPILFPRCLA, the protein stability index in the data set on Saccharomyces cerevisiae [1] was found to be 0.25 ± 0.072; in the data set on Saccharomyces cerevisiae [2] (setting [3]) it was 0.476 ± 0.048; in the data set with Saccharomyces cerevisiae [2] (setting [4]), 0.636 ± 0.016; in the data set with Saccharomyces cerevisiae [2] (setting [5]), 0.579 ± 0.045; in the data set with Saccharomyces cerevisiae [2] (setting [6]), 0.6659 ± 0.0023; in the data set on Saccharomyces cerevisiae [2] (setting [7]), 0.142 ± 0.017. In addition, the protein stability index in the data set with Saccharomyces cerevisiae [2] (setting [8]) was 0.139 ± 0.021; in the data set with Saccharomyces cerevisiae [2] (setting [9]), 0.19 ± 0.013.

For CFGFMFLLLFDV, the protein stability index with Saccharomyces cerevisiae [1] was determined as 0.405 ± 0.02; with Saccharomyces cerevisiae [2] (setting [3]) it was 0.3073 ± 0.0011; in the data set with Saccharomyces cerevisiae [2] (setting [4]), 0.312 ± 0.0066; in the data set on Saccharomyces cerevisiae [2] (setting [5]), 0.334 ± 0.024; in the data set with Saccharomyces cerevisiae [2] (setting [6]), 0.448 ± 0.013; in the data set with Saccharomyces cerevisiae [2] (setting [7]), 0.467 ± 0.011. Also, the protein stability index with Saccharomyces cerevisiae [2] (setting [8]) stood at 0.317 ± 0.027; in the data set on Saccharomyces cerevisiae [2] (setting [9]), 0.418 ± 0.0039.

With CFRRPLLRVVLT, the protein stability index in the data set on Saccharomyces cerevisiae [1] stood at 0.506 ± 0.018; with Saccharomyces cerevisiae [2] (setting [3]), 0.502 ± 0.014; in the data set with Saccharomyces cerevisiae [2] (setting [4]) it was 0.5681 ± 0.0051; with Saccharomyces cerevisiae [2] (setting [5]), 0.451 ± 0.037; with Saccharomyces cerevisiae [2] (setting [6]), 0.59 ± 0.025; in the data set on Saccharomyces cerevisiae [2] (setting [7]), 0.4289 ± 0.0035. The values for the protein stability index in the data set on Saccharomyces cerevisiae [2] (setting [8]) and in the data set on Saccharomyces cerevisiae [2] (setting [9]) were 0.435 ± 0.017 and 0.569 ± 0.0089, respectively.

For the sequence CFSYLLIVLLFP, the protein stability index is 0.279 ± 0.005 in the data set with Saccharomyces cerevisiae [1]; 0.168 ± 0.019 in the data set with Saccharomyces cerevisiae [2] (setting [3]); 0.2273 ± 0.00043 with Saccharomyces cerevisiae [2] (setting [4]); 0.198 ± 0.024 with Saccharomyces cerevisiae [2] (setting [5]); 0.334 ± 0.031 with Saccharomyces cerevisiae [2] (setting [6]); 0.216 ± 0.0065 with Saccharomyces cerevisiae [2] (setting [7]). In addition, the protein stability index in the data set with Saccharomyces cerevisiae [2] (setting [8]) is 0.17 ± 0.045; in the data set with Saccharomyces cerevisiae [2] (setting [9]) it was 0.307 ± 0.0052.

For the sequence CFVPFFLPLCAF, the protein stability index came to 0.139 ± 0.016 in the data set on Saccharomyces cerevisiae [1]; 0.0255 ± 0.0085 with Saccharomyces cerevisiae [2] (setting [3]); 0.0285 ± 0.0074 in the data set on Saccharomyces cerevisiae [2] (setting [4]); 0.0864 ± 0.03 with Saccharomyces cerevisiae [2] (setting [5]); 0.109 ± 0.058 in the data set with Saccharomyces cerevisiae [2] (setting [6]); 0.144 ± 0.0073 in the data set on Saccharomyces cerevisiae [2] (setting [7]). For the same sequence, the protein stability index was determined as 0.0733 ± 0.019 in the data set on Saccharomyces cerevisiae [2] (setting [8]) and 0.0588 ± 0.022 in the data set on Saccharomyces cerevisiae [2] (setting [9]).

Turning to CGILACSVCTFF, the protein stability index with Saccharomyces cerevisiae [1] is 0.509 ± 0.021; in the data set on Saccharomyces cerevisiae [2] (setting [3]) it was 0.547 ± 0.071; in the data set on Saccharomyces cerevisiae [2] (setting [4]), 0.6516 ± 0.0037; in the data set with Saccharomyces cerevisiae [2] (setting [5]), 0.427 ± 0.027; in the data set on Saccharomyces cerevisiae [2] (setting [6]), 0.6336 ± 0.0037; in the data set on Saccharomyces cerevisiae [2] (setting [7]) it was 0.405 ± 0.016. Moreover, the protein stability index came out at 0.436 ± 0.024 with Saccharomyces cerevisiae [2] (setting [8]) and 0.61 ± 0.023 in the data set on Saccharomyces cerevisiae [2] (setting [9]).

Consider CGLLWFYSFFLF, for which the protein stability index with Saccharomyces cerevisiae [1] was 0.38 ± 0.021; with Saccharomyces cerevisiae [2] (setting [3]), 0.502 ± 0.019; in the data set on Saccharomyces cerevisiae [2] (setting [4]) it was 0.491 ± 0.013; in the data set with Saccharomyces cerevisiae [2] (setting [5]), 0.391 ± 0.04; in the data set on Saccharomyces cerevisiae [2] (setting [6]) it was 0.5187 ± 0.0046; in the data set on Saccharomyces cerevisiae [2] (setting [7]), 0.375 ± 0.012. For the same sequence, the protein stability index in the data set with Saccharomyces cerevisiae [2] (setting [8]) is 0.316 ± 0.013; in the data set with Saccharomyces cerevisiae [2] (setting [9]) it was 0.465 ± 0.018.

As for CGLYNQFCLFLY, the protein stability index in the data set with Saccharomyces cerevisiae [1] stood at 0.31 ± 0.027; with Saccharomyces cerevisiae [2] (setting [3]) it was 0.561 ± 0.04; in the data set with Saccharomyces cerevisiae [2] (setting [4]), 0.626 ± 0.022; with Saccharomyces cerevisiae [2] (setting [5]), 0.527 ± 0.018; in the data set on Saccharomyces cerevisiae [2] (setting [6]) it was 0.6526 ± 0.0024; in the data set with Saccharomyces cerevisiae [2] (setting [7]), 0.2274 ± 0.0022. The protein stability index with Saccharomyces cerevisiae [2] (setting [8]) stood at 0.217 ± 0.029; in the data set on Saccharomyces cerevisiae [2] (setting [9]), 0.37 ± 0.0043.

In the case of CGVWVVVASAYR, the protein stability index is 0.377 ± 0.03 in the data set with Saccharomyces cerevisiae [1]; 0.43 ± 0.019 with Saccharomyces cerevisiae [2] (setting [3]); 0.483 ± 0.03 in the data set on Saccharomyces cerevisiae [2] (setting [4]); 0.302 ± 0.02 in the data set on Saccharomyces cerevisiae [2] (setting [5]); 0.49431 ± 0.00019 with Saccharomyces cerevisiae [2] (setting [6]); 0.2812 ± 0.0017 with Saccharomyces cerevisiae [2] (setting [7]). Also, the protein stability index in the data set on Saccharomyces cerevisiae [2] (setting [8]) stood at 0.304 ± 0.019; with Saccharomyces cerevisiae [2] (setting [9]) it was 0.508 ± 0.0093.

As to CGWVRRARVKMM, the protein stability index was 0.241 ± 0.015 with Saccharomyces cerevisiae [1]; 0.622 ± 0.073 in the data set on Saccharomyces cerevisiae [2] (setting [3]); 0.693 ± 0.01 with Saccharomyces cerevisiae [2] (setting [4]); 0.63 ± 0.026 with Saccharomyces cerevisiae [2] (setting [5]); 0.709 ± 0.014 in the data set with Saccharomyces cerevisiae [2] (setting [6]); 0.114 ± 0.03 in the data set on Saccharomyces cerevisiae [2] (setting [7]). Besides, the protein stability index with Saccharomyces cerevisiae [2] (setting [8]) amounted to 0.137 ± 0.029; in the data set with Saccharomyces cerevisiae [2] (setting [9]) it was 0.226 ± 0.0087.
